The target of data set [1] is T1, rStat1a (Danio rerio (zebrafish), UniProt O93598 1-749).
T1 sequence: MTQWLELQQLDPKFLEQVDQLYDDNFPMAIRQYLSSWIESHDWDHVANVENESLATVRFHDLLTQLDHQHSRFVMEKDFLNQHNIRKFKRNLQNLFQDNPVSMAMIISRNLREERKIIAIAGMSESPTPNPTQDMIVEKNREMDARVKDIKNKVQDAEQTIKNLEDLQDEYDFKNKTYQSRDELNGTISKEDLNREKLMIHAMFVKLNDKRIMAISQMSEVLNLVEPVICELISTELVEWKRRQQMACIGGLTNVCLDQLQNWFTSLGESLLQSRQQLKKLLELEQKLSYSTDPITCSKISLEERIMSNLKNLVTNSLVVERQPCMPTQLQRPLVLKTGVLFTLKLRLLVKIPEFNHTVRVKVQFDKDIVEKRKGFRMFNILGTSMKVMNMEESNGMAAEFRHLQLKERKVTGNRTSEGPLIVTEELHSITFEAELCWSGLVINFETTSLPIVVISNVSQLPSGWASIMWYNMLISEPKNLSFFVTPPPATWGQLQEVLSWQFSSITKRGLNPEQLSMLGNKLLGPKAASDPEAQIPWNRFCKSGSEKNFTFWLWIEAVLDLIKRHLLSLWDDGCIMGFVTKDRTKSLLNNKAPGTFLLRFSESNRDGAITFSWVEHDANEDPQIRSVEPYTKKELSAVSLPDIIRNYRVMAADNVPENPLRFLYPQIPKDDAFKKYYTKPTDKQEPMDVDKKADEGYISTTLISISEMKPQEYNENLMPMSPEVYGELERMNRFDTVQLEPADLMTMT
Nature of the data set: EMSA; poly(dI-dC); anti-His supershift; unlabeled probe competes; Beyotime GS009 EMSA/Gel-Shift binding buffer with poly(dI-dC), 25 C, 25 min preincubation then 30 min with 0.5 uM biotin probe (competitor stated as 0.5 uM), native 6% PAGE; salt and pH not stated. To be noted: protein: recombinant; tags: His (pET-28a; Ni-NTA, anti-His); chain copies: 2; label: biotin on both strands (5'); blunt.

The target of data set [2] is T2, rStat1b (Danio rerio (zebrafish), UniProt B0S789 1-725).
T2 sequence: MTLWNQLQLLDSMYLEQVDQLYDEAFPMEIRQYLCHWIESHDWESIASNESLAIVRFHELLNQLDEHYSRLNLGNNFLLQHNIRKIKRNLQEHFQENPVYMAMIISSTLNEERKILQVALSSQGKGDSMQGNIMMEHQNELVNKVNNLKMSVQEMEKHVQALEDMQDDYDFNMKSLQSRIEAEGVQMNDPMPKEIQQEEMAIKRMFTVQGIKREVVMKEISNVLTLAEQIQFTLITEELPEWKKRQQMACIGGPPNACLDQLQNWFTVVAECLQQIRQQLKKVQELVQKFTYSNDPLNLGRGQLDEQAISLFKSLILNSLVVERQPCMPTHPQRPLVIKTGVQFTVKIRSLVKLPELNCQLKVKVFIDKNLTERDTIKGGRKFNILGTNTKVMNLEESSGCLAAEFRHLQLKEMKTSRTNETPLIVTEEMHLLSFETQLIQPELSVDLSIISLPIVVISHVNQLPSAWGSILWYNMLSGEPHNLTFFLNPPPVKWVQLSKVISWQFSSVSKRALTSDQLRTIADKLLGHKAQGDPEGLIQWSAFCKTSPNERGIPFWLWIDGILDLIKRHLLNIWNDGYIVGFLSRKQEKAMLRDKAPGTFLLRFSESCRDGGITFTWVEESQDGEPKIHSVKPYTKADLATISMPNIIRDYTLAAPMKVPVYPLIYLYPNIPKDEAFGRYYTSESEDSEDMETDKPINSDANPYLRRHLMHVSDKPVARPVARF
The data set is described as above. To be noted: protein: recombinant; tags: His (pET-28a; Ni-NTA, anti-His); chain copies: 2; label: biotin on both strands (5'); blunt.

The target of data set [3] is T1, rStat1a. The data set can be described thus: competition; unlabeled competitor vs biotin P2 probe; little change; Beyotime GS009 EMSA/Gel-Shift binding buffer with poly(dI-dC), 25 C, 25 min preincubation then 30 min with 0.5 uM biotin probe (competitor stated as 0.5 uM), native 6% PAGE; salt and pH not stated. To be noted: protein: recombinant; tags: His (pET-28a; Ni-NTA, anti-His); chain copies: 2; blunt. Background: Mobility shift assays separate free from complexed probe on a gel.

The target of data set [4] is T2, rStat1b. The description is as above. To be noted: protein: recombinant; tags: His (pET-28a; Ni-NTA, anti-His); chain copies: 2; blunt.
Data set [5] concerns the target T1, rStat1a. Nature of the data set: competition; unlabeled competitor vs biotin P1 probe; little change; Beyotime GS009 EMSA/Gel-Shift binding buffer with poly(dI-dC), 25 C, 25 min preincubation then 30 min with 0.5 uM biotin probe (competitor stated as 0.5 uM), native 6% PAGE; salt and pH not stated. To be noted: protein: recombinant; tags: His (pET-28a; Ni-NTA, anti-His); chain copies: 2; blunt.

For data set [6], the target named is T2, rStat1b. The data set is described as above. To be noted: protein: recombinant; tags: His (pET-28a; Ni-NTA, anti-His); chain copies: 2; blunt.

B1: P2 GAS probe (dsDNA)
DNA 1: TTCAATTTACTAGAACTTCTC
DNA 2: GAGAAGTTCTAGTAAATTGAA
With B1, the binding result with rStat1a [1] and with rStat1b [2] was “binds” each time.

B2: P1 GAS probe (dsDNA)
DNA 1: AGACCATTCCGGGAAAACCAA
DNA 2: TTGGTTTTCCCGGAATGGTCT
B2: the binding result with rStat1a [1] and with rStat1b [2] was “binds” in each case.

B3: P2 mutant probe (dsDNA)
DNA 1: TTCAATGCACTAGGCCTTCTC
DNA 2: GAGAAGGCCTAGTGCATTGAA
Turning to B3, the binding result with rStat1a [3] and in the data set with rStat1b [4] was “no binding” in each case.

B4: P1 mutant probe (dsDNA)
DNA 1: AGACCAGCCCGGGGCAACCAA
DNA 2: TTGGTTGCCCCGGGCTGGTCT
With B4, the binding result with rStat1a [5] and in the data set with rStat1b [6] was “no binding” each time.

The values are drawn from paper PMC7943762, “Bmp8a is an essential positive regulator of antiviral immunity in zebrafish”.
